Laboratory results: the supplement of paper PMC10065799, “High-throughput profiling of sequence recognition by tyrosine kinases and SH2 domains using bacterial peptide display” (eLife, 2023)

Columns and labels:
SHP2-C SH2 = assay: SH2 binding enrichment of the phosphorylated peptide, bacterial display (enrichment ratio); higher = better substrate or ligand; peptides without Tyr show the background
c-Src SH2 = assay: as above
Grb2 SH2 = Grb2 SH2 (UniProt P62993); assay: as above
Fyn = Fyn (UniProt P06241); assay: phosphorylation enrichment, bacterial display (enrichment ratio); higher = better substrate or ligand; peptides without Tyr show the background
Fes = Fes (UniProt P07332); assay: as above
AncSZ = assay: as above
FGFR1 = FGFR1 (UniProt P11362); assay: as above
EPHB2 = EPHB2 (UniProt P29323); assay: as above
MERTK = MERTK (UniProt Q12866); assay: as above
FGFR3 = FGFR3 (UniProt P22607); assay: as above
Fer (mouse) = assay: as above
Jak2 = Jak2 (UniProt O60674); assay: as above
c-Abl (mouse) = assay: as above
EPHB1 = EPHB1 (UniProt P54762); assay: as above
Hck = Hck (UniProt P08631); assay: as above
c-Src = assay: as above
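For SH2 binding enrichment of the phosphorylated peptide, bacterial display in this document: peptide library displayed on the E. coli surface as eCPX fusions, selected cells deep-sequenced, score is each peptide's frequency after selection divided by its frequency in the input.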
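For phosphorylation enrichment, bacterial display in this document: 11-residue human phosphosite peptides and single-mutation variants displayed on the E. coli surface, counted by deep sequencing, each peptide's frequency after selection divided by its frequency in the unselected input library; frequency after pTyr selection over input frequency; kinase dosed for 20-30% of maximal phosphorylation in three min.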

FGFR3, sequence (P22607 whole entry, looked up): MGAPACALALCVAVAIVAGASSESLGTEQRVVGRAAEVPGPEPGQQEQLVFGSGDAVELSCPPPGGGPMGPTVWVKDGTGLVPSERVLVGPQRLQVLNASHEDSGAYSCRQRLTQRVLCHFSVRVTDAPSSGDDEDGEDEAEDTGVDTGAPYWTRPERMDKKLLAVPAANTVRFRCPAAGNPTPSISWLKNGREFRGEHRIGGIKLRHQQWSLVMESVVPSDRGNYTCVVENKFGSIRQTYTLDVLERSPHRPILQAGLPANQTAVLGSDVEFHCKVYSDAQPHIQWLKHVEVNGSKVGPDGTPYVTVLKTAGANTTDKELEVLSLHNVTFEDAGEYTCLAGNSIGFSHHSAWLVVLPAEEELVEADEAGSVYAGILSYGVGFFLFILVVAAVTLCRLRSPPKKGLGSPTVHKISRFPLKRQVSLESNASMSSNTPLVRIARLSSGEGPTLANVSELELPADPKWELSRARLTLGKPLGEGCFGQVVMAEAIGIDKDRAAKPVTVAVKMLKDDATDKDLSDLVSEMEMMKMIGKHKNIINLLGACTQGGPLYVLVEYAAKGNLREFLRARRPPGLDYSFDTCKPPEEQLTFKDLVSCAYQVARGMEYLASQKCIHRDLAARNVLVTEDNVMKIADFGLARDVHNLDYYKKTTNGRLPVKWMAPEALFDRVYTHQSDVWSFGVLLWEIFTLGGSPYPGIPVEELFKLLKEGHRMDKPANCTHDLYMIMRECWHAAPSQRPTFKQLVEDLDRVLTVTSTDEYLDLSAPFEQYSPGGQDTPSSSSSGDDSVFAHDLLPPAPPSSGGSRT
Fes, sequence (P07332 whole entry, looked up): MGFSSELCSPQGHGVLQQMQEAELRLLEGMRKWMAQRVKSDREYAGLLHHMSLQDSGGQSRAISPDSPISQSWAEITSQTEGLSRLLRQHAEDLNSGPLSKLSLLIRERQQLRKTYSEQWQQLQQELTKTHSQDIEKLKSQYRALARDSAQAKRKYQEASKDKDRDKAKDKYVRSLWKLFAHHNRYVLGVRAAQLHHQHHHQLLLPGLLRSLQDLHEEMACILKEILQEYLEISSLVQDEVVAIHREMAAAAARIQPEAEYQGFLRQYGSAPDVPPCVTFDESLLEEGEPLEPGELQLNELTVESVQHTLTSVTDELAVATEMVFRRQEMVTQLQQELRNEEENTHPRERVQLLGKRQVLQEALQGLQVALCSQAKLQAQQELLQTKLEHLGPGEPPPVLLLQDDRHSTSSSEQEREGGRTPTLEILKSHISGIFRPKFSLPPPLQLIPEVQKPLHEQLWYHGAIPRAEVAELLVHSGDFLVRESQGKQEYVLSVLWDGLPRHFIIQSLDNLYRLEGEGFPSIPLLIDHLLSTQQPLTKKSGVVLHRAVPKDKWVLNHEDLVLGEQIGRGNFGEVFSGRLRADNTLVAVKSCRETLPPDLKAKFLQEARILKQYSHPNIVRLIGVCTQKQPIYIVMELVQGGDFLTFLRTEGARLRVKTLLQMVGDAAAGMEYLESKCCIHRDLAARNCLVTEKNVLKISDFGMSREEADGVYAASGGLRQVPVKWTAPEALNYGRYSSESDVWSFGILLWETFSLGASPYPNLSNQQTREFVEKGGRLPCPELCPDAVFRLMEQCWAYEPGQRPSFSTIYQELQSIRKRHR
FGFR1, sequence (P11362 whole entry, looked up): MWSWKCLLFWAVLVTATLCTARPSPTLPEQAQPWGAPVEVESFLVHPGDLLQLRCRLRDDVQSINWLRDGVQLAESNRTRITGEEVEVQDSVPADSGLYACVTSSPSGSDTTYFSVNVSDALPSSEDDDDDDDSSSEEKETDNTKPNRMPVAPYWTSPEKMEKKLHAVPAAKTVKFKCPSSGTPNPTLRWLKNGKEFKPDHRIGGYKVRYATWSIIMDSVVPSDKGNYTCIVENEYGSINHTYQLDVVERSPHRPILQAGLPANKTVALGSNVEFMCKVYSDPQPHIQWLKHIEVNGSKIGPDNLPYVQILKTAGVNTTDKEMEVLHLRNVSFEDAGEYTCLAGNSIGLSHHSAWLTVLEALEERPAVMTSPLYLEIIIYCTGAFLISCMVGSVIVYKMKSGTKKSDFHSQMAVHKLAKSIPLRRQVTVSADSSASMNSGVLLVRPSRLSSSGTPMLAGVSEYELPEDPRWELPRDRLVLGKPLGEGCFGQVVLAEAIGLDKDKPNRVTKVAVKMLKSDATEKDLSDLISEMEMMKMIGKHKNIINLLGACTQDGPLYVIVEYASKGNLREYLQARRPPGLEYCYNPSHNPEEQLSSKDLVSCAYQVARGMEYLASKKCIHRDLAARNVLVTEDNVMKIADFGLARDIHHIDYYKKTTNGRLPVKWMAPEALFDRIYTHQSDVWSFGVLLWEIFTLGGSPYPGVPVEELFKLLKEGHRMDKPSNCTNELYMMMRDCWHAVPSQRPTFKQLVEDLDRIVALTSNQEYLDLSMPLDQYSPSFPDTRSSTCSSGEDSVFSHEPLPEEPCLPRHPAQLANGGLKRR
MERTK, sequence (Q12866 whole entry, looked up): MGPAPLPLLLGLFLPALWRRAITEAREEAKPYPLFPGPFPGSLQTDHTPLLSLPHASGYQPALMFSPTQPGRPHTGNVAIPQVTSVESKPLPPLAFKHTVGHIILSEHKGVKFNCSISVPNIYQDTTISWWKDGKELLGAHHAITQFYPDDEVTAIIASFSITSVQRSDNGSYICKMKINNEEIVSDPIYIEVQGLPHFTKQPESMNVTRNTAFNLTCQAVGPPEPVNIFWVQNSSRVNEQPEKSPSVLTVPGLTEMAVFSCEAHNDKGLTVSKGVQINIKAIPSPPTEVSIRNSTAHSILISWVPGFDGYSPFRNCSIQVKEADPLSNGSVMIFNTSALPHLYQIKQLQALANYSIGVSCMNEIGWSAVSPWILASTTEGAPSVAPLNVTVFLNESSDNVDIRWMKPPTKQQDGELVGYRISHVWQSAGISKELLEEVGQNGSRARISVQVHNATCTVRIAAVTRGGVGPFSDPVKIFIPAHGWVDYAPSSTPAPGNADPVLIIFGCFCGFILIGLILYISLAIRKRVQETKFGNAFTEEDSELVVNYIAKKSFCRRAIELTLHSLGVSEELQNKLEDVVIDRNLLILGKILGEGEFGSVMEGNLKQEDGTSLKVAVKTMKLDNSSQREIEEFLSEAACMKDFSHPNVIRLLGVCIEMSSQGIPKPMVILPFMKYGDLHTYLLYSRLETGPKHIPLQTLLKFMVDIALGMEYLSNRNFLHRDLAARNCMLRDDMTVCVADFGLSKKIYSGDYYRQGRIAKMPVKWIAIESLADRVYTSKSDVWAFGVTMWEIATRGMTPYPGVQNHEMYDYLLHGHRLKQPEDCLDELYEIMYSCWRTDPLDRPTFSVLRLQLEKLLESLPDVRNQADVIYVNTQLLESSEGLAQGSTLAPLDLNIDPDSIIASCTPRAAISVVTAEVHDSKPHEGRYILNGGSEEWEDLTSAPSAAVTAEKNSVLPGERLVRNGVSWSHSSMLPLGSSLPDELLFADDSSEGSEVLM
EPHB1, sequence (P54762 whole entry, looked up): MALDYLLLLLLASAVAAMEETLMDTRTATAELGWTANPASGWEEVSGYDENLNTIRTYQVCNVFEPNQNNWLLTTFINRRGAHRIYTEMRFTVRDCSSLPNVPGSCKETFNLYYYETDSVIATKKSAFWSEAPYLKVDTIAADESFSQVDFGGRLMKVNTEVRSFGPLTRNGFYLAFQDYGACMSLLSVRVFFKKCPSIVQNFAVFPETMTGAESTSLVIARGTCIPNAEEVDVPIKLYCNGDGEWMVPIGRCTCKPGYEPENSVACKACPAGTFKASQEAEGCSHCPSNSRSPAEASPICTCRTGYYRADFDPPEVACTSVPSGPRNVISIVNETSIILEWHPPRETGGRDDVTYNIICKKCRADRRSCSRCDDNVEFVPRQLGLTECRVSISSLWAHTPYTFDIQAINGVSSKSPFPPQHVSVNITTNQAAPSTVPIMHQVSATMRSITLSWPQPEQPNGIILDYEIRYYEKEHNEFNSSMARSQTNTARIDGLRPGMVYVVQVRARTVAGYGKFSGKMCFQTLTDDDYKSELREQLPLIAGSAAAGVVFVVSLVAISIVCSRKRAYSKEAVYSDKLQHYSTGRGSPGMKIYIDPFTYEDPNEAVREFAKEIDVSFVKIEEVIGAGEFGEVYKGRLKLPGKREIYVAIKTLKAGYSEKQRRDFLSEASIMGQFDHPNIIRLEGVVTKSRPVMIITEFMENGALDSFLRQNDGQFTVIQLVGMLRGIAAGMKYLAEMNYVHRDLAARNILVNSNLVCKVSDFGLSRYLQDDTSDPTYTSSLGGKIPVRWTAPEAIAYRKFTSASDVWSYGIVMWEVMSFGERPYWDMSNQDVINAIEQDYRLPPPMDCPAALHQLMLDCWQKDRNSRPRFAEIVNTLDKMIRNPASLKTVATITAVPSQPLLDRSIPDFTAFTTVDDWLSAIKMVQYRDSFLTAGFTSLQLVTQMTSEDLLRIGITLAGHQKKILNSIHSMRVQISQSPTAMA
Grb2 SH2, sequence (P62993 whole entry, looked up): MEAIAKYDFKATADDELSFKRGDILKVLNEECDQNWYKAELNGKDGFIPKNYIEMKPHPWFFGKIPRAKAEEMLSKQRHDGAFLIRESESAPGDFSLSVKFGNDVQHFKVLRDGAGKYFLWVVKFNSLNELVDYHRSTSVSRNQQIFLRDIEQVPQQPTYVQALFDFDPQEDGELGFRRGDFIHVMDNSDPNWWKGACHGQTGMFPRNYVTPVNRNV

Sequence | SH2 binding enrichment (SHP2-C SH2) | SH2 binding enrichment (c-Src SH2) | SH2 binding enrichment (Grb2 SH2) | phosphorylation enrichment (Fyn) | phosphorylation enrichment (Fes) | phosphorylation enrichment (AncSZ) | phosphorylation enrichment (FGFR1) | phosphorylation enrichment (EPHB2) | phosphorylation enrichment (MERTK) | phosphorylation enrichment (FGFR3) | phosphorylation enrichment (Fer (mouse)) | phosphorylation enrichment (Jak2) | phosphorylation enrichment (c-Abl (mouse)) | phosphorylation enrichment (EPHB1) | phosphorylation enrichment (Hck) | phosphorylation enrichment (c-Src)
NQELIYEGQRL [TBK1_Y354_R357Q] | 0.709 | 0.352 | 0.537 | 7.4 | 1.42 | 1.71 | 0.628 | 1.11 | 1.52 | 0.739 | 11.6 | 0.956 | 2.65 | 1 | 7.73 | 6.85
GLTSTYVGIRK [ROBO1_Y932_A933V] | 11.5 | 0.649 | 0.741 | 0.528 | 0.775 | 0.756 | 0.46 | 0.506 | 0.463 | 0.489 | 0.374 | 0.598 | 0.565 | 0.471 | 1.67 | 0.562
AHPIIYDIIEA [PYKtide_D_2014] | 0.483 | 1.25 | 0.819 | 7.74 | 2.13 | 1.41 | 0.699 | 10.7 | 9.44 | 0.794 | 11.9 | 0.949 | 5.89 | 12.7 | 8.25 | 6.44
PGIRMYRVQYN [LRFN1_Y454_Q455R] | 0.714 | 0.507 | 0.838 | 0.486 | 1.08 | 0.759 | 0.58 | 0.586 | 0.527 | 0.713 | 0.989 | 0.626 | 0.675 | 0.744 | 0.62 | 0.473
KLMTEYKKRKQ [ARFGEF3_Y2029] | 0.878 | 1.08 | 1.27 | 0.418 | 0.69 | 0.478 | 0.331 | 0.34 | 0.52 | 0.543 | 0.411 | 0.653 | 0.629 | 0.336 | 0.459 | 0.442
LRYEVYGGENE [STOX1_Y610] | 0.56 | 1.64 | 0.677 | 0.615 | 1.25 | 1.33 | 0.631 | 0.729 | 0.499 | 0.692 | 0.623 | 1.09 | 0.775 | 0.765 | 0.828 | 0.77
TGVRDYIHVVD [GALE_Y241] | 0.658 | 0.549 | 0.81 | 0.426 | 1.01 | 0.846 | 0.587 | 0.531 | 0.331 | 0.593 | 0.413 | 0.71 | 0.586 | 0.499 | 0.493 | 0.381
AVLVQYYMEHH [PTPN11_Y80_E76V] | 1.87 | 1.18 | 1.52 | 0.673 | 1.21 | 0.987 | 0.753 | 1.32 | 0.89 | 0.868 | 0.516 | 0.821 | 0.708 | 2.43 | 0.875 | 0.596
VASSLYDIFAR [GLB1_Y294_L297F] | 0.884 | 0.714 | 1.02 | 6.66 | 0.948 | 1.09 | 0.637 | 1.81 | 11.4 | 0.714 | 3.12 | 0.927 | 1.25 | 1.46 | 8.55 | 6.38
QWQQLYDTLNA [EIF3M_Y351] | 0.777 | 0.636 | 1.16 | 5.55 | 1.29 | 1.63 | 0.556 | 1.63 | 6.06 | 0.932 | 4.62 | 1.06 | 0.546 | 2.15 | 8.42 | 3.99
RMDGTYACSFT [FLNB_Y704_YF] | 0.619 | 0.557 | 0.893 | 2.61 | 1.16 | 1.3 | 0.836 | 0.741 | 0.702 | 0.812 | 0.932 | 0.806 | 1.34 | 1.03 | 2.43 | 2.31
SFMVRYNQPRV [GRIN2D_Y736_YF] | 0.959 | 0.894 | 1.1 | 0.446 | 0.954 | 0.832 | 0.473 | 0.698 | 0.389 | 0.57 | 0.423 | 0.685 | 0.582 | 0.557 | 0.505 | 0.398
VPFARYLAMNK [HARS1_Y138] | 0.561 | 0.576 | 0.739 | 0.382 | 0.516 | 0.432 | 0.388 | 0.43 | 0.376 | 0.442 | 0.334 | 0.361 | 0.328 | 0.379 | 0.381 | 0.362
NGLVACKDGKL [PMM2_Y76_Y76C] | 0.893 | 0.541 | 0.969 | 0.416 | 0.43 | 0.486 | 0.392 | 0.524 | 0.367 | 0.484 | 0.419 | 0.435 | 0.401 | 0.397 | 0.401 | 0.387
IRQGHYESLKE [MTR_Y921_D919G] | 0.765 | 5.48 | 0.951 | 0.466 | 0.768 | 0.573 | 0.419 | 0.34 | 0.457 | 0.567 | 0.652 | 0.85 | 0.443 | 0.392 | 0.519 | 0.45
GSIQQYTFKQE [PRG4_Y1271_I1272T_YF] | 0.937 | 0.53 | 0.829 | 0.345 | 0.785 | 0.703 | 0.369 | 0.451 | 0.322 | 0.573 | 0.427 | 0.641 | 0.728 | 0.484 | 0.347 | 0.356

Sequence | SH2 binding enrichment (SHP2-C SH2) | SH2 binding enrichment (c-Src SH2) | SH2 binding enrichment (Grb2 SH2) | phosphorylation enrichment (Fyn) | phosphorylation enrichment (Fes) | phosphorylation enrichment (AncSZ) | phosphorylation enrichment (FGFR1) | phosphorylation enrichment (EPHB2) | phosphorylation enrichment (MERTK) | phosphorylation enrichment (FGFR3) | phosphorylation enrichment (Fer (mouse)) | phosphorylation enrichment (Jak2) | phosphorylation enrichment (c-Abl (mouse)) | phosphorylation enrichment (EPHB1) | phosphorylation enrichment (Hck) | phosphorylation enrichment (c-Src)
RLRVVYPWTQR [HBB_Y36_L33R] | 0.44 | 0.636 | 1.06 | 0.6 | 0.711 | 0.688 | 0.422 | 0.363 | 0.819 | 0.568 | 0.335 | 0.494 | 0.484 | 0.367 | 0.364 | 0.382
EEGESDVCSSD [DCX_Y125_Y125D] | 0.924 | 0.699 | 0.922 | 0.505 | 0.939 | 1.04 | 0.497 | 0.507 | 0.495 | 0.544 | 0.479 | 0.797 | 0.621 | 0.525 | 0.457 | 0.518
DVRQEYPGMIL [PLXND1_Y616] | 0.555 | 0.433 | 0.889 | 0.41 | 0.949 | 0.675 | 0.455 | 0.517 | 0.487 | 0.588 | 0.394 | 0.76 | 0.669 | 0.413 | 0.497 | 0.403
MTKEQYIKMNR [ARFGEF2_Y797] | 0.672 | 0.454 | 0.823 | 0.397 | 0.558 | 0.595 | 0.458 | 0.357 | 0.348 | 0.445 | 0.346 | 0.563 | 0.335 | 0.365 | 0.407 | 0.369
ETLLYYGCRRS [POR_Y564] | 0.767 | 0.466 | 0.712 | 1.89 | 0.897 | 0.959 | 0.795 | 0.506 | 1.18 | 0.71 | 0.638 | 1.67 | 0.883 | 0.63 | 5.24 | 3.48
KPRKLYTIKKP [BRD2_Y715_P714L] | 1.19 | 0.972 | 1.07 | 0.375 | 0.496 | 0.608 | 0.328 | 0.444 | 0.408 | 0.427 | 0.413 | 0.532 | 0.456 | 0.374 | 0.452 | 0.442
EAVSIYQFFGQ [CBLC_Y402_H405Y_YF] | 0.881 | 0.654 | 0.921 | 7.8 | 1.36 | 1.74 | 3.15 | 5.73 | 9.29 | 2.67 | 8.72 | 1.34 | 6.44 | 11.2 | 7.12 | 6.58
ADDSYYTARSA [ZAP70_Y493] | 0.448 | 0.401 | 0.861 | 0.623 | 0.706 | 0.932 | 0.773 | 0.603 | 0.634 | 0.754 | 0.518 | 0.597 | 0.542 | 0.484 | 1.12 | 0.7
STEEQYRICQV [EFHC1_Y115_R118C] | 0.52 | 0.367 | 0.695 | 0.541 | 1.53 | 1.09 | 0.599 | 0.629 | 0.492 | 0.848 | 0.598 | 1.08 | 0.999 | 0.71 | 0.52 | 0.566
FTFNSYFMHWV [IGHV1-46_Y51_T49N_YF] | 1.07 | 0.795 | 1.12 | 0.608 | 1.59 | 1.55 | 1.51 | 0.761 | 1.04 | 1.37 | 1.62 | 6.35 | 0.962 | 0.726 | 0.693 | 0.555
PSPMPYAFCQM [FOXL2_Y215_S217F] | 0.774 | 1.7 | 0.64 | 0.706 | 2.17 | 1.87 | 2.61 | 1.28 | 1.41 | 2.31 | 9.08 | 1.75 | 1.44 | 1.3 | 0.934 | 1.99
SHTPSYCDEWL [RITA1_Y109_S113W] | 0.748 | 0.97 | 1.19 | 0.473 | 1.12 | 1.17 | 0.529 | 0.558 | 0.553 | 0.779 | 0.57 | 0.97 | 0.985 | 0.645 | 0.505 | 0.494
DPNQQYFIAMD [TBX15_Y159_H156N_YF] | 0.554 | 0.597 | 0.754 | 0.444 | 0.934 | 1.07 | 0.892 | 0.443 | 0.356 | 0.866 | 0.403 | 0.911 | 0.672 | 0.466 | 0.493 | 0.482
IMAYFYMCDSA [CASD1_Y382_R386S] | 0.702 | 0.677 | 1.08 | 0.523 | 1.5 | 1.38 | 2.24 | 0.643 | 0.505 | 2.25 | 0.597 | 1.93 | 1.07 | 0.845 | 0.51 | 0.69
PTDSVYVMPTV [MYO7A_Y1668] | 0.683 | 0.429 | 0.911 | 8.58 | 0.926 | 2.78 | 2.32 | 0.708 | 8.35 | 1.68 | 0.77 | 0.827 | 3.01 | 1.15 | 3.43 | 4.43
SHGKRYRVPSD [HHIPL2_Y395] | 0.592 | 0.557 | 0.887 | 0.395 | 0.413 | 0.379 | 0.301 | 0.274 | 0.374 | 0.366 | 0.285 | 0.314 | 0.337 | 0.254 | 0.274 | 0.352
